Assay results reported in PMC6279252.

Experiments:
[1] = molecular target: GST-Ragulator pre-incubated with GFP-tagged active-loaded Rag heterodimers (UniProt Q6IAA8); assay: single-molecule imaging on beads
[2] = molecular target: stable Ragulator-VhH + GFP-Rag complexes (UniProt Q9Y2Q5); assay: single-molecule imaging on beads
Chain of UniProt Q9Y2Q5 (Q9Y2Q5 whole entry, looked up, one chain of several): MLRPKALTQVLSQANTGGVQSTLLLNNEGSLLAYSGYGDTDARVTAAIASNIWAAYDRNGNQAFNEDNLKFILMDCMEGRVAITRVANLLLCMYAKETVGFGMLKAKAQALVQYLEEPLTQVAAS

A residence time (photobleaching-corrected half-life, t1/2) [1] of 3.1 s and a residence time (photobleaching-corrected half-life, t1/2) [2] of 13.2 s were found for “Raptor-Halo^TMR (co-purified with mTOR and mLST8) (from UniProt Q8N122;P42345;Q9BVC4) (complex)” in this work.
